Experimental data reported in patent publication US7067474B1, “Agents for treating human illnesses based on β-catenin, and the production and use thereof” (Max-Delbruck-Centrum fur Molekulare Medizin, priority 1998, dated 2006).

Experiments:
Experiment in all cases: yeast 2-hybrid; - means 60-100% of the wild type interaction
[1] = molecular target: T1, human β-catenin (Leu218-Leu781) mutant Lys 394 to alanine, Gal-4 activation domain fusion (human, UniProt P35222 218-781)
T1 sequence: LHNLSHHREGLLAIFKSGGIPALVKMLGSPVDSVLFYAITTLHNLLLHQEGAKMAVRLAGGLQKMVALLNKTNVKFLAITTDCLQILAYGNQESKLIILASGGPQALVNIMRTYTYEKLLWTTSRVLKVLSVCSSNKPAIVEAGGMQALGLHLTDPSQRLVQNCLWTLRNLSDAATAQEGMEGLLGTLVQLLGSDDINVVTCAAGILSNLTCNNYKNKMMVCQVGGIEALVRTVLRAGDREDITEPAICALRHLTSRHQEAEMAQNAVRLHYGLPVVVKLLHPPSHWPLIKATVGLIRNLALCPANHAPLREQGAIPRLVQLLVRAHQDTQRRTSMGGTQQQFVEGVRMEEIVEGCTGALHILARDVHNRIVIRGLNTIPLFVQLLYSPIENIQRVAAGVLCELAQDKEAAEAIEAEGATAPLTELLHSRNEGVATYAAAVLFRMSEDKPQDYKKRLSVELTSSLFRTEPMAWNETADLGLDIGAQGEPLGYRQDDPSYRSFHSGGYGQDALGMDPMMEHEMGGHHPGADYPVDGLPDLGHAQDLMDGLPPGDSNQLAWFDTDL
Method: (§1) 4. Preparation and testing of mutants of β-catenin modulating the interaction with LEF-1, APC, conductin or E-cadherin The mutagenesis of β-catenin in the armadillo repeats 3–8 was carried out by means of the "mutagenesis kit" of the company Clontech according to the producer's record and the mutants were checked by sequencing (FIG. 5). In all mutants the original amino acid was substituted by alanine. For analyzing the interactions the cDNA of human β-catenin (armadillo repeat 3 up to the C-terminal end of the protein) coding for the amino acids Leu218–Leu7 µl or its mutants was cloned into the fusion vector for the activation domain of Gal-4 (pGAD424, Clontech). The cDNA for the binding domains of the interaction partners was cloned into the Lex-A fusion vector BTM 116. To this end, the cDNA of LEF-1 for the amino acids 1–99, conductin for the amino acids Ala342–ARG465; of human APC for the amino acids His1012–Glu1215 (APC 15 amino acid repeats) and for the amino acids Ser1259Asp 1400 (APC 20 amino acid repeats) and E-cadherin for the amino acids Gin773–Asp884 (cytoplasmatic domain) were amplified with the respective primers PCR. The interaction of the Lex-A hybrids with β-catenin and its mutants was quantified by means of the β-galactosidase reporter activity in the yeast 2-hybrid system (report: "Matchmaker". Clontech) (Tab. 2 and FIG. 6).

[2] = molecular target: T2, human β-catenin (Leu218-Leu781) mutant Lys 435 to alanine, Gal-4 activation domain fusion (human, UniProt P35222 218-781)
T2 sequence: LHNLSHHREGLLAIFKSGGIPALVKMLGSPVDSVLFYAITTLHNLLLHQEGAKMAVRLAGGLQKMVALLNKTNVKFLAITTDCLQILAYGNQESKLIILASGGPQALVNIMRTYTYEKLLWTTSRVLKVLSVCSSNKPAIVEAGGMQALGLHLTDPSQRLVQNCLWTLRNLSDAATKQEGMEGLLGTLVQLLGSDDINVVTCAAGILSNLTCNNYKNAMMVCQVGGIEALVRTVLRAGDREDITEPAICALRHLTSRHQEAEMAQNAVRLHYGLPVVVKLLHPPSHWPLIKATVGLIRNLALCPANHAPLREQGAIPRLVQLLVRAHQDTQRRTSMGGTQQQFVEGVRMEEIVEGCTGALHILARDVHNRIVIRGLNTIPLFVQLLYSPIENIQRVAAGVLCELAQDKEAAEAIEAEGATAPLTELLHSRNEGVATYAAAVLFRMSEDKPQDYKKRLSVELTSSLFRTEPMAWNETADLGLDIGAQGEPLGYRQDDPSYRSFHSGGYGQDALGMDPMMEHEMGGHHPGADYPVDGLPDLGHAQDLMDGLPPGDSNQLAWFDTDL
Method: as §1

[3] = molecular target: T3, human β-catenin (Leu218-Leu781) mutant Trp 383 to alanine, Gal-4 activation domain fusion (human, UniProt P35222 218-781)
T3 sequence: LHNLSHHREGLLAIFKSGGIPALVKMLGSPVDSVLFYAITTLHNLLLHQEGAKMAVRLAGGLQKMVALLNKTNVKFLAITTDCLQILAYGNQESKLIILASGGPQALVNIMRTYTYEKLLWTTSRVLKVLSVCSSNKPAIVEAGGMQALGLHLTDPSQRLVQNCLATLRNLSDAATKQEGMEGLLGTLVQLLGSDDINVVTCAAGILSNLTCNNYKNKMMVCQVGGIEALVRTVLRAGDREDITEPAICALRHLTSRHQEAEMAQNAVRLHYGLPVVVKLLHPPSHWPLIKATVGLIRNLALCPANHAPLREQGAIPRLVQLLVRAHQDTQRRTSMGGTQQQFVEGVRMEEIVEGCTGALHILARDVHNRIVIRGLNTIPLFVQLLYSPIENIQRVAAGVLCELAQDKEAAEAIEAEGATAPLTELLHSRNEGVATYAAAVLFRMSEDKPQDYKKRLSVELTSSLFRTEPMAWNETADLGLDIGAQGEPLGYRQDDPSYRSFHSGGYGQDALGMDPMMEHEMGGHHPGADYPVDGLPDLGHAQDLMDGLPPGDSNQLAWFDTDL
Method: as §1

- binding result [1]: binds
- binding result [2]: binds
- binding result [3]: binds
B1: LEF-1 amino acids 1-99 fused to Lex-A (vector BTM 116) (other, UniProt P0A7C2 1-202, looked up)
chain: MKALTARQQEVFDLIRDHISQTGMPPTRAEIAQRLGFRSPNAAEEHLKALARKGVIEIVSGASRGIRLLQEEEEGLPLVGRVAAGEPLLAQQHIEGHYQVDPSLFKPNADFLLRVSGMSMKDIGIMDGDLLAVHKTQDVRNGQVVVARIDDEVTVKRLKKQGNKVELLPENSEFKPIVVDLRQQSFTIEGLAVGVIRNGDWLMPQLSGGGGGGDPELCATDEMIPFKDEGDPQKEKIFAEISHPEEEGDLADIKSSLVNESEIIPASNGHEVVRQAPSSQEPYHDKAREHPDEGKHPDGGL
notes: Order of the fusion follows the vector; also called LEF-1/TCF-4
